Test results taken from the supplement of paper PMC10126150.
± gives the standard deviation of the averaged measurements.

Test system: ATP
Test: switch fluorescence ratio, 500 uM ATP over buffer (Cy3 cluster intensity, sum of 5 cycles each) (fold (ratio)); higher = stronger signal-on switching upon ATP binding; sequences stand for … in TCGTCGGCAGCGTCAGATGTGTATAAGAGACAGTTTTTTTTTTTTTTTTTTTTTTTTT…TC
Details: aptamer strand: ATP DNA aptamer (quencher-CACCTGGGGGAGTATTGCGGAGGAAGG + anchor), 100 nM annealed; ATP concentration: 500 uM
Procedure, shortened: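 Five buffer/ATP imaging cycles were run on Cy3-labelled switching-strand clusters on a modified Illumina MiSeq flow-cell, with NaOH stripping and re-annealing between cycles. In each cycle, clusters annealed to 100 nM quencher-labelled ATP aptamer were imaged in selection buffer, then after 15 min with 500 uM ATP at 22 °C. Per cluster, the fluorescence ratio is summed target-cycle over summed buffer-cycle Cy3 intensity, averaged per switch-domain sequence. Only clusters within 100-1000 RFU were kept.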
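Also: ATP exposure 15 min at 22 °C before imaging.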

## GGTTATGCAG
  switch fluorescence ratio: 0.977 ± 0.1

## GGTTATGGAG
  switch fluorescence ratio: 0.964 ± 0.046

## GGTTATTCGG
  switch fluorescence ratio: 0.993 ± 0.053

## GGTTCAACAT
  switch fluorescence ratio: 0.985 ± 0.049

## GGTTCAAGGC
  switch fluorescence ratio: 1.05 ± 0.051

## GGTTCATCGG
  switch fluorescence ratio: 0.9912 ± 0.0029

## GGTTCATGAT
  switch fluorescence ratio: 0.993 ± 0.024

## GGTTCCGCGG
  switch fluorescence ratio: 1.11 ± 0.025

## GGTTCCGGTA
  switch fluorescence ratio: 0.9998 ± 0.00095

## GGTTCGAGAC
  switch fluorescence ratio: 1.01 ± 0.025

## GGTTCGGGGT
  switch fluorescence ratio: 0.982 ± 0.012

## GGTTCGTCAC
  switch fluorescence ratio: 1.11 ± 0.1

## GGTTCGTCGT
  switch fluorescence ratio: 0.987 ± 0.02

## GGTTCGTGTC
  switch fluorescence ratio: 0.974 ± 0.016

## GGTTCTCAGG
  switch fluorescence ratio: 1.02 ± 0.011

## GGTTCTGGCG
  switch fluorescence ratio: 0.992 ± 0.045

## GGTTCTGGGC
  switch fluorescence ratio: 0.9601 ± 0.0026

## GGTTCTTGGT
  switch fluorescence ratio: 0.949 ± 0.028

## GGTTCTTTTT
  switch fluorescence ratio: 1.02 ± 0.011

## GGTTGAAGGG
  switch fluorescence ratio: 1.014 ± 0.0091

## GGTTGAATGA
  switch fluorescence ratio: 0.992 ± 0.053

## GGTTGAGGCG
  switch fluorescence ratio: 0.981 ± 0.054

## GGTTGAGGTC
  switch fluorescence ratio: 1 ± 0.023

## GGTTGAGTCG
  switch fluorescence ratio: 0.989 ± 0.014

## GGTTGAGTTC
  switch fluorescence ratio: 0.948 ± 0.036

## GGTTGATCCG
  switch fluorescence ratio: 1.01 ± 0.0092

## GGTTGCGATC
  switch fluorescence ratio: 1.08 ± 0.03

## GGTTGCGGGG
  switch fluorescence ratio: 0.9855 ± 0.0082

## GGTTGCTTGA
  switch fluorescence ratio: 0.9848 ± 0.002

## GGTTGGCAGA
  switch fluorescence ratio: 0.99 ± 0.059

## GGTTGGGCGG
  switch fluorescence ratio: 1.01 ± 0.026

## GGTTGGGCTC
  switch fluorescence ratio: 1.001 ± 0.0099

## GGTTGGGGAG
  switch fluorescence ratio: 0.985 ± 0.019

## GGTTGGGGCA
  switch fluorescence ratio: 0.985 ± 0.049

## GGTTGGGGCT
  switch fluorescence ratio: 0.987 ± 0.039

## GGTTGGGGGA
  switch fluorescence ratio: 1.02 ± 0.024

## GGTTGGTTGT
  switch fluorescence ratio: 1.15 ± 0.21

## GGTTGTGGGC
  switch fluorescence ratio: 0.992 ± 0.019

## GGTTGTGGGT
  switch fluorescence ratio: 0.996 ± 0.015

## GGTTGTTCTG
  switch fluorescence ratio: 0.997 ± 0.015

## GGTTGTTTCT
  switch fluorescence ratio: 0.997 ± 0.0057

## GGTTTAAAAA
  switch fluorescence ratio: 0.969 ± 0.036

## GGTTTAATTG
  switch fluorescence ratio: 1.026 ± 0.0085

## GGTTTAGAGA
  switch fluorescence ratio: 1.02 ± 0.069

## GGTTTAGCCT
  switch fluorescence ratio: 1.04 ± 0.023

## GGTTTAGCTG
  switch fluorescence ratio: 0.984 ± 0.041

## GGTTTAGTTG
  switch fluorescence ratio: 0.9744 ± 0.0062

## GGTTTAGTTT
  switch fluorescence ratio: 0.99 ± 0.035

## GGTTTATATA
  switch fluorescence ratio: 1.006 ± 0.0018

## GGTTTATCAA
  switch fluorescence ratio: 1.0008 ± 0.00076

## GGTTTATCAG
  switch fluorescence ratio: 0.983 ± 0.021

## GGTTTATTAT
  switch fluorescence ratio: 1.02 ± 0.017

## GGTTTCAGCA
  switch fluorescence ratio: 1.01 ± 0.042

## GGTTTCCGGG
  switch fluorescence ratio: 1.01 ± 0.035

## GGTTTCCTGT
  switch fluorescence ratio: 1.01 ± 0.043

## GGTTTCGTTG
  switch fluorescence ratio: 1 ± 0.046

## GGTTTGAGAA
  switch fluorescence ratio: 1.018 ± 0.0031

## GGTTTGAGAG
  switch fluorescence ratio: 0.989 ± 0.048

## GGTTTGATGC
  switch fluorescence ratio: 0.962 ± 0.055

## GGTTTGCACG
  switch fluorescence ratio: 0.992 ± 0.042

## GGTTTGGATC
  switch fluorescence ratio: 1.02 ± 0.018

## GGTTTGGTCG
  switch fluorescence ratio: 1.01 ± 0.037

## GGTTTGGTGG
  switch fluorescence ratio: 0.992 ± 0.028

## GGTTTGGTTC
  switch fluorescence ratio: 0.957 ± 0.083

## GGTTTGGTTG
  switch fluorescence ratio: 1.003 ± 0.008

## GGTTTGGTTT
  switch fluorescence ratio: 1 ± 0.021

## GGTTTGTAGG
  switch fluorescence ratio: 0.954 ± 0.02

## GGTTTGTGCT
  switch fluorescence ratio: 0.94 ± 0.051

## GGTTTGTGGT
  switch fluorescence ratio: 1.03 ± 0.062

## GGTTTGTTTG
  switch fluorescence ratio: 0.999 ± 0.025

## GGTTTTCACC
  switch fluorescence ratio: 0.9866 ± 0.0065

## GGTTTTCGAA
  switch fluorescence ratio: 1.01 ± 0.042

## GGTTTTCGGG
  switch fluorescence ratio: 0.969 ± 0.035

## GGTTTTCTGT
  switch fluorescence ratio: 0.997 ± 0.016

## GGTTTTGATT
  switch fluorescence ratio: 0.998 ± 0.0089

## GGTTTTGGGA
  switch fluorescence ratio: 0.998 ± 0.019

## GGTTTTGTGC
  switch fluorescence ratio: 1.03 ± 0.091

## GGTTTTTCGA
  switch fluorescence ratio: 0.983 ± 0.034

## GGTTTTTCGC
  switch fluorescence ratio: 1.028 ± 0.0029

## GGTTTTTGGG
  switch fluorescence ratio: 0.994 ± 0.033

## GGTTTTTGGT
  switch fluorescence ratio: 1 ± 0.032

## GGTTTTTGTT
  switch fluorescence ratio: 0.991 ± 0.039

## GGTTTTTTTG
  switch fluorescence ratio: 1.02 ± 0.037

## GTAAAAGCTC
  switch fluorescence ratio: 1.02 ± 0.018

## GTAAAAGGGT
  switch fluorescence ratio: 1 ± 0.02

## GTAAAAGTCG
  switch fluorescence ratio: 1.03 ± 0.015

## GTAAAATTGG
  switch fluorescence ratio: 0.998 ± 0.025

## GTAAGAAGGA
  switch fluorescence ratio: 1.02 ± 0.07

## GTAAGAGCGG
  switch fluorescence ratio: 0.9983 ± 0.0065

## GTAAGCAAAG
  switch fluorescence ratio: 1.2 ± 0.081

## GTAAGGAGGG
  switch fluorescence ratio: 0.981 ± 0.032

## GTAAGGGAAT
  switch fluorescence ratio: 0.9718 ± 0.0065

## GTAAGGGATT
  switch fluorescence ratio: 1.025 ± 0.0068

## GTAAGGGGGA
  switch fluorescence ratio: 0.984 ± 0.031

## GTAAGGGGGC
  switch fluorescence ratio: 0.984 ± 0.011

## GTAAGTACTG
  switch fluorescence ratio: 1.36 ± 0.015

## GTAATAGGAG
  switch fluorescence ratio: 1.02 ± 0.039

## GTAATCGATT
  switch fluorescence ratio: 1.07 ± 0.022

## GTAATGATCT
  switch fluorescence ratio: 1.06 ± 0.036

## GTAATTAATT
  switch fluorescence ratio: 0.978 ± 0.025

## GTAATTGCTG
  switch fluorescence ratio: 1.01 ± 0.059

## GTAATTGGGT
  switch fluorescence ratio: 0.986 ± 0.015

## GTAATTTCGT
  switch fluorescence ratio: 0.99733 ± 0.0004

## GTACCATCTG
  switch fluorescence ratio: 0.976 ± 0.02

## GTACCCTCAA
  switch fluorescence ratio: 1.03 ± 0.024

## GTACCCTGGA
  switch fluorescence ratio: 1.03 ± 0.03

## GTACCTAACT
  switch fluorescence ratio: 1.2 ± 0.025

## GTACGAGTCC
  switch fluorescence ratio: 1.01 ± 0.015

## GTACGGGGGA
  switch fluorescence ratio: 1.002 ± 0.0056

## GTACTACCTA
  switch fluorescence ratio: 1.14 ± 0.022

## GTACTATTAT
  switch fluorescence ratio: 1.038 ± 0.0052

## GTACTATTTT
  switch fluorescence ratio: 1.036 ± 0.0037

## GTACTTCATC
  switch fluorescence ratio: 1.06 ± 0.058

## GTAGAATGTG
  switch fluorescence ratio: 0.983 ± 0.03

## GTAGAGAGGG
  switch fluorescence ratio: 0.992 ± 0.053

## GTAGATTGG
  switch fluorescence ratio: 0.9872 ± 0.0035

## GTAGCAGGCG
  switch fluorescence ratio: 1.13 ± 0.058

## GTAGCATATT
  switch fluorescence ratio: 1.49 ± 0.011

## GTAGCGATAG
  switch fluorescence ratio: 4.13 ± 2.2

## GTAGCGCGTC
  switch fluorescence ratio: 1.03 ± 0.026

## GTAGCTGGTG
  switch fluorescence ratio: 1.02 ± 0.018

## GTAGCTTATC
  switch fluorescence ratio: 2.08 ± 0.067

## GTAGGAACCT
  switch fluorescence ratio: 1.8 ± 0.12

## GTAGGGGATA
  switch fluorescence ratio: 1.02 ± 0.026

## GTAGGGGATC
  switch fluorescence ratio: 1.04 ± 0.058

## GTAGGTAACG
  switch fluorescence ratio: 0.9867 ± 0.0079

## GTAGGTATGG
  switch fluorescence ratio: 0.969 ± 0.015

## GTAGTAGCCA
  switch fluorescence ratio: 1.01 ± 0.033

## GTAGTAGGTG
  switch fluorescence ratio: 1 ± 0.033

## GTAGTATCAG
  switch fluorescence ratio: 1 ± 0.017

## GTAGTATTAT
  switch fluorescence ratio: 0.991 ± 0.035

## GTAGTATTTT
  switch fluorescence ratio: 0.994 ± 0.028

## GTAGTCATTT
  switch fluorescence ratio: 0.992 ± 0.022

## GTAGTCGGAT
  switch fluorescence ratio: 1.002 ± 0.0021

## GTAGTGGGGG
  switch fluorescence ratio: 0.975 ± 0.027

## GTAGTTGGAA
  switch fluorescence ratio: 0.9968 ± 0.0085

## GTAGTTGTGG
  switch fluorescence ratio: 1.01 ± 0.014

## GTATAAAAGT
  switch fluorescence ratio: 1.01 ± 0.03

## GTATAAGGGG
  switch fluorescence ratio: 0.977 ± 0.026

## GTATAAGTTT
  switch fluorescence ratio: 0.998 ± 0.017

## GTATAATTCA
  switch fluorescence ratio: 0.975 ± 0.028

## GTATGAAGTT
  switch fluorescence ratio: 0.982 ± 0.028

## GTATGCCGTC
  switch fluorescence ratio: 0.988 ± 0.076

## GTATGCCTTC
  switch fluorescence ratio: 1 ± 0.032

## GTATGTAGGG
  switch fluorescence ratio: 0.995 ± 0.015

## GTATGTAGTG
  switch fluorescence ratio: 0.966 ± 0.023

## GTATGTGTCG
  switch fluorescence ratio: 1.01 ± 0.017

## GTATTAAACC
  switch fluorescence ratio: 1.06 ± 0.023

## GTATTACAGG
  switch fluorescence ratio: 1.04 ± 0.04

## GTATTAGAAG
  switch fluorescence ratio: 0.975 ± 0.047

## GTATTAGGAA
  switch fluorescence ratio: 0.985 ± 0.031

## GTATTAGGGT
  switch fluorescence ratio: 1 ± 0.041

## GTATTCGGTG
  switch fluorescence ratio: 0.982 ± 0.045

## GTATTGGTCG
  switch fluorescence ratio: 1.058 ± 0.0091

## GTATTTCTTA
  switch fluorescence ratio: 0.974 ± 0.0099

## GTATTTGGAG
  switch fluorescence ratio: 1.0226 ± 0.00041

## GTATTTGGGT
  switch fluorescence ratio: 0.986 ± 0.041
